According to US20170349905A1:

Tests used:
[1] = target: second domain of Cas9 protein delivered by adeno-associated virus vector (splicing acceptor linked t (UniProt Q99ZW2)); assay: cell-based or functional assay
[2] = target: second domain of Cas9 protein (half domain comprising the C-terminus, beginning with the QG amino acids of the SGQG linker; NLS and HA tag at its C-terminus) (UniProt Q99ZW2); assay: cell-based or functional assay
second domain of Cas9 protein (half domain comprising the C-terminus, beginning with the QG amino acids of the SGQG linker; NLS and HA tag at its C-terminus), sequence (Q99ZW2 716-1368): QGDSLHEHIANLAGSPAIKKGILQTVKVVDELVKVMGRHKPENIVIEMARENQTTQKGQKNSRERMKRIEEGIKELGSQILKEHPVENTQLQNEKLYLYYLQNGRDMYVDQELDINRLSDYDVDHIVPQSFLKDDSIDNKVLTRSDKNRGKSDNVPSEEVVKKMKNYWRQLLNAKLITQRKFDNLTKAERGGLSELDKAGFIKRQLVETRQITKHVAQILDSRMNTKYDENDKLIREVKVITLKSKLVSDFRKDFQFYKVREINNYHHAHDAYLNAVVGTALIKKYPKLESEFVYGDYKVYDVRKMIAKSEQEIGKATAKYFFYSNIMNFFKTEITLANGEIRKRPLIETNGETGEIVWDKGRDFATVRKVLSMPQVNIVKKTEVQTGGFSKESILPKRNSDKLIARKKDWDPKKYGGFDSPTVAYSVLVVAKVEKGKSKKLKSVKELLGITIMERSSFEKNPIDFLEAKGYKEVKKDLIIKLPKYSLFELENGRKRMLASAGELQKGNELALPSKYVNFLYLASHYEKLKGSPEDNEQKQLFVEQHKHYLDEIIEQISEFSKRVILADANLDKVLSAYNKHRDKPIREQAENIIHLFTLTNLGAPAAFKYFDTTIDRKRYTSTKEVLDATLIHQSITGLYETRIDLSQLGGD

second domain of Cas9 protein delivered by adeno-associated virus vector (splicing acceptor linked t, sequence (Q99ZW2 716-1368 limits assumed): as the sequence (Q99ZW2 716-1368) above

Substance | target sequence cleavage rate (DMD exon 51) in Hela cells co-infected with AAV, next-generation sequencing [1] | Indel frequency in the CCR5 gene (next-generation sequencing) [2] | Indel frequency in the DMD gene (next-generation sequencing) [2] | Indel frequency in the HPRT gene (next-generation sequencing) [2]
first domain of Cas9 protein delivered by adeno-associated virus vector (splicing donor linked to the C-terminal region) (from UniProt Q99ZW2 1-715) (enzyme) | 5% | – | – | –
first domain of Cas9 protein (half domain comprising the N-terminus, ending in the SG amino acids of the SGQG linker; HA tag and NLS at its N-terminus) (from UniProt Q99ZW2 1-715) (enzyme) | – | 20.3% | 23.8% | 27.1%
